Data: article PMC8567585

The substances below were run against T1, His-OsbR (Chromobacterium violaceum ATCC 12472) (UniProt Q7NR79) (assay: EMSA). Conditions: EMSA with 32P-labeled PCR probes and reduced His-OsbR; buffer, salt, pH and temperature not given (refers to earlier papers); CHP pretreatment at room ….
T1 sequence: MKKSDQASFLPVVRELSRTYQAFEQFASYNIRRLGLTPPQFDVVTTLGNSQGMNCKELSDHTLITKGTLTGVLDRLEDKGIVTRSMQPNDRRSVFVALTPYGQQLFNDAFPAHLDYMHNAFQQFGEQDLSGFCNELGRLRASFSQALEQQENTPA

Substance | binding
ATCGGGATGCCCAGCACCGCGAACATCATCCAGACCATGAAGCAGAGGGTGAAAGCCAGCGTGCTGCTGGCCAGCACGCTGTAGCGTTTGAATGTCGGGGAAGTCATGGCGCCATATCCATGGAGTGGTCATGGCTACCACGATAAGCGACGGCGGCGCGCGCCGATATTCGTCTGTCGCAGGACTGTCAGTCTGCCAACGGACGAGGCGGATTAACCCTTACGGCTGGCGCCGGCTACTCCCAATGGGGGAGAGTCA (double strand) [narK1 promoter] | no binding
CCTCGTAAAAGCGGATGGCGCGGGTGGTGATGTCGAACTCCTGCGCGAGTTCGGTGATGTTGAAAACCTGTTCGCCCATGCGTCTGTCCCTTTATCTTCCCGCTGCGGCCACGCGCGCCACAGTCGGGTGCTTTTGCATTCATTGTCTGTTGACGTTGACGTAAACGTCAAGTTATCGTGATCGAAAGTAGAGCAAACAGTCCAGGAGAAGCAGATGAGCCAGAAAATCGGCGTGGTGGGCGCGGGCACGATGGGCAACGGCATCGCCCAGGTCTTCGCGATGAAGGGTTTCGACG (double strand) [CV_2087 promoter] | binds
CTCGCTGGCCGATCTGGGACGCGGCCCGGTGCGGGCGGCCGCCTGATCGCGGTTTCGCGCCCGCTTGGCGCGGGCGCGTCGCGGTTCCGCATAATAATAAATTGCTTGCAATTAAATAGTGCACTATTTATTATGCGGCCATGGAACAAGAAAACACGTGCCCGCCGCAGGACGCGCTTTTGCGGCTGGACCAGCAACTCTGCTTCGCGCTGTATTCCGCC (double strand) [ohrR promoter] | no binding
GACCAAGTGATAGACGCCGGCACGCTGCGCGCGGTGTACGGCGTGAACGGCCGGGTGGAGCGCTGCACGCAGGGCGTGCCCCACGTGCTGGTGGACGGCCTGGCCGCAGGCTGAGCGCCGCGGCGGGGCGGCGCTCGCCGTCCCGCCCGATTGAAATCTTCACTCCCTCGCAAGAATGCGATTGAAATTGATATTCAATCGCATTTATGATGTCAGCCTCCGCTCAGGAGCCGCCCAGGCGGCCAAAACCAATAACAGGCAGACATCCTCATGACCGAGAAGCTTTAGGCC (double strand) [cbaF promoter] | no binding
GACCATACTAGACAGCTACGCCACCTTCAGCGCCATCGACCGCCACAGCGAAAGCCGCCAGAAACATCCCTTCGTCGCGCAATTGCTGCGCCGCTATCCGCAAATCACCACGCTG (double strand) [CV_0208 coding region] | no binding
TTGGATCCTGCCGGAGCGGAATGCAACTGGACGATATCGCCGGATTGAGGCAGTCGCTGTGCGATCTGCGCGACCGGCTGCTGCAATGAACCCGTCAGGGTTTTGATAGTTAGATAGTGCACTATTAAATAGCTCATTATTTTAATCGCAACGGCGTCAAGCCAAGGAGAGCCAGATGAACCCTCTGCAAAAAGTACTGTATACCGCCGAAGCCACCGCCTGCAGTAAT (double strand) [ohrA promoter] | binds

These substances were tested against His-OsbR (oxidative stress response and biofilm formation regulator, CV_3905, MarR family) (Chromobacterium violaceum) (assay: non-reducing SDS-PAGE (covalent dimers after oxidation); purified His-OsbR incubated with the oxidants TBHP, CHP or H2O2 at 0.1 and 1 mM, room temperature, alkylated with 100 mM NEM for 2 h, non-reducing SDS-PAGE, Coomassie staining; monomer to covalent dimer). Conditions: not given.

Substance | stoichiometry N
His-OsbR (oxidative stress response and biofilm formation regulator, CV_3905, MarR family) (natural protein) | 2
